System: Saccharomyces cerevisiae
Experiment: transcriptional activation domain activity (GFP:mCherry ratio, weighted mean of sorted bins, harmonized to initial dataset scale) (arbitrary fluorescence ratio units); higher = stronger transcriptional activation
Conditions: beta-estradiol 1 µM; induction time 4 h
Outline: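 Protein tiles carrying barcodes and fused to an estradiol-inducible synthetic transcription factor were placed at the URA3 locus of yeast diploids with a GFP reporter. Following 4 hours at 30 °C in SC with 1 uM beta-estradiol, cells were sorted into 8 GFP:mCherry bins, barcodes were sequenced, and tiles with fewer than 50 reads were discarded. Activation activity is given as the read-weighted mean of bin median fluorescence, averaged across barcodes and linearly mapped to the initial dataset scale.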

Row | Sequence | transcriptional activation domain activity
1 | MDGEPANPAVSAPTTRRRRRRPALVCEQCRVRKIKCDRGSPCSKCARGRRSHL | 42000
2 | MLRVPGSWFGMLFMGLLVSRERLSLLASLLFFVQVIFIRLLVVFWMICGGQIP | 31400
3 | GKKDQEALKEGESSSESASASASKSSSSTKSSKGSKSSSAAAAEASDDGKPKK | 38600
4 | TLWLLLLCLRCSTSVLALLTLLSCSSFPPFLGFHLSRALWPVLRCPLPSMLCS | 59400
5 | MAWHFVWQDIPLMGTMHQISYLLNNFIYCFPIAHVHLQVCFFSSLLLIHFYTF | 68200
6 | GGLSELKDSLDDSQVQYAYARVEYANDSESTRVKFVLVIWIGESTKVMRKARV | 46700
7 | AAFFFALLWVVFRSSWPSPLFFFLFFFVGLVLLAFLAFGFPFARFLLPLGVFF | 26000
8 | NIDPAAIDDKWLSEFINNSDPKSTFKINFNHFNDIGFIYSPPSSRSSIPNKSP | 101000
9 | PAAAAQAPPAAGGKKEEAAAAEVPQAEAAAEGAGSPEGEGKDAQAEAAAPAEG | 16800
10 | PDRLDGRCVPDLSFFSVGDFTPISLVFFLSFPLLLFFFSFFFFFFFFFFFFFF | 37700
11 | AVTCMTIFATISLKLNQQDMLTPWYTSLPLHRRLLHQWFCGLLHWMGFYLVWS | 65900
12 | VLLFLFVWRWGRRAFWQLRGRGIIGSVVELYVNIRRILYGYFLRAPGVRNKVQ | 44100
13 | NCLKLGCDCLGMIHYFDGFICSHKGLPIKLENVICMHEQDNGLMWKHTHFRTN | 40800
14 | ASLEGGGGVVDISGETSSYVWRVLVYLAFINPFFCFLCALYAILILLAVLVTY | 29300
15 | VAVARTKARKAVVGIEKVEIAAEVEATPEIVTAARTRERKAVVGIESAETVAE | 45800
16 | RPKVQPFWVIDLFVPYRPLLSFVSDLYFAYQAWTQLTGLTVTLFYFSIWKLAL | 58500
17 | IPTPFASHAFNPVDGFLQSLPYHLYAYFIPMHKYLYLSMFVFVNFWTVMIHDG | 58500
18 | MRKNGSILSFRSFPPSPTFLPSFLLFFFSFPFFPVIFFQTPLLFLLLFFIYWG | 42000
19 | GKPVALRTSTRVKDVSGDGIVTLESGEQISADVVVGADGVHSRTRYAIPGSAG | 52400
20 | SATPATSEAAKPATSSLFGNGSSTTTAGATAAKPSLFGAAQSTPTTQPATTGA | 38800
21 | MLFTIVPLLCILHHIVLHPIFPSLFYTHIHLCTFFFFFNSVFFFFMFYILVFN | 50200

Row | Sequence | transcriptional activation domain activity
22 | RRPRAAKPGTEQPKPETEKPGSEKRPGSEKRPRGRPRKAAAKPSTEKQPSNAK | 21300
23 | KGGSEKSGNAGKKEDAGKKEAEKKKVEAGKNQGKGKQNTGSGGNKKAAKKGKK | 18400
24 | VSYVLFVLMHRSTQPLVQHLLFKLRWLPFPFFITKHYYSWIISAYSFIGYRNL | 56400
25 | MDCLGMEFIGCEIFGAVALIFLFFFLFFFFFIFFHFLLIFLFSFSFFLFFFFV | 47200
26 | MELLSLLFFLFFFFFLYSLFGYASTLSFLPHHLFSFLTIYFISYFCDILFFEF | 44900
27 | LCFVFVLNIQAVLAVLWVIATKWIVIGRRRDGQYAWDSSSYCQRWQLHLVLSR | 71600
28 | AGDAFGAVESVKSASDIMSPVSGEVVEANVALKDKPALINRSPEEEGWIVRVR | 52900
29 | MYELIGQGVSFFCCYFACVCFALHFCFGPYFGLWLWHCIFKTFFFLLVFFPNY | 61200
30 | AVMFGQVCVILVAFCFTNQITFVGIRHGLWRSRINTIRLYIFLLRCWQILCGL | 60900
31 | QYTKLFFFFFLWPLPSLSLLHLPHFSCSLFPFFPTFAPPFSLSLYLSQSFLFL | 54900
32 | TISYLILAGSDYFEWCYLSIYQYSTLCNSSLLDVWRDIQYLWILIMFIWNILP | 52100
33 | MLFHFLAFPFLFFIFFLCCFSSWVAFHSPFSFLIMFSFEWIMLFFIRCTASSV | 41600
34 | SCCMLQVISGIAMGNSCLARMNFWPVIASNFPWLLIVIINYTMFFNWMLSYFL | 62400
35 | MFFCYLTVILSMDAFYYYQSHLNWTSTQLYVTWFNACFRNGLIRIIYFVFWWL | 76300
36 | EIVDPMQSWLPFQPEASDNVLPDENFFLDDSLFTFGDTLTPNFGPVEWYDLLA | 140000
37 | TSIRKIRAGESGGGESGGGESSGGESSGGGERGRRRRGAKEVEVRARGGGKAT | 43700
38 | WLNGCFLLVGHIIFQLVMCYQLAQIIRGIVQMYGHLWISNDWHCLWITWLILF | 63600
39 | MSLFSPSPSLSLYNFKIRFCILLVPLILAFLFLIILISYCLSLFICFSSSLWF | 54700
40 | GSSAEGEGDKEKTAVKRKRDSQVTGQQQQQQQQRADSSNRATSRKRRKTNKEG | 60100
41 | MIFFLLFFFSFHQVYFSLFSFRRIFLLSFLLLLLPFLLFACVLFSLLTFCPFL | 41900
42 | PVRGIVELPRNSFPDEVLHFTCLTIVCAAIFFLFSSFLFFFCLLHLSCYLFVP | 30800

Row | Sequence | transcriptional activation domain activity
43 | MVFFTSSFLLGFFSFVSFRNHCSFFLMAPFLTGSELFLFFVLLFILFFFLALA | 64900
44 | LPLYNFVRQHLCVFLDRYEHMLTRFLTLGNIMVVSSAVRRGAYWHLLETCQHT | 50200
45 | MGSFLPFLFFSFCYTFVCYFFSIIALVVFVYFTLAVEFFFFFFGCLRCLLLWL | 57600
46 | MYHSIQLGPVVSLLSLALSFIFFFLSPFFFFPFLALSFAPLFVILIFFFISTC | 29000
47 | LWSHSILILACLIPYLVLRCSTYYCYQAISYIDSNDLAWSNVSIRFDVAMLVV | 69200
48 | KKREKKERSRRHRDDDGERRRRHRSRSRSRDRERRHRHRDRSRSRDRRRDDGR | 35200
49 | ASGAKTVVKKEPASATPEPAPKQAEVKKPAAAEAAPVPAAKAAPALASAAAAA | 43400
50 | VVVILRMWAFCYRGSGHAHEMLHLLHNLICVWTKEFQYIVLQNWLANPQGKPK | 58500
51 | DTKLIAISDANELKGFDSQCIEEWDPILFSAAEIWPTKGKPIALVEMDPIDFD | 145000
52 | VKHLKLSRDKSSPTFKFDSLYREILSSHPELMFILTAMLLWPDLVSDYHILRV | 30200
53 | AAAGNATAEAGAAEGKAKGKGKDAAAAEGAAAAGGAAAAEGKAKGKGKDAAAA | 46600
54 | EKESVCYKLRLNRDSLSIMKDFLACKHEHDPSLIVLAHVLLYKVTATFVKAVS | 53500
55 | EITNDESVEAHKEEQAVEAKEGSPEIAAEAEAEEGGAKPAEESKKPRKLIEEE | 12500
56 | MYYLYLSFCFLIVFFFFFFPLYCCCRLLFFSSSFVLFLSVLIILIPTFHAFFP | 67800
57 | PVPAKEPAAVEAPEKEVAEEAKLEDGEIADEAKADDSAEEKPADGAAAAAAAP | 34700
58 | GKPRKRLAQACLTCREKKIKCDPGSPKCAQCQKSHRICRGTGSVASSGGPVGV | 19000
59 | AAPKAKATTAKAKATTTKKATTAKASTTKKAAAAKPKANASKPRKAAAATAAA | 38600
60 | LTDIQRASKLFRVMQDFRYLRLLVHRITLWIDDQHCASLGTNIYYTFLMRGRF | 53200
61 | GFSCHTRILGRPIIISTSTSYIGILLDLVRTFYFLYLLLRILLKVFLAVWCFL | 63700

— the supplement of paper PMC12636428
